Assay results published in PMC4041433.
Read-outs that look alike come from different tables or passages of the source.

Legend:
[1] = target: Aeropyrum pernix ThermoDBP-related protein 2 (apeThermoDBP-RP2) (Aeropyrum pernix); assay: crystal structure
[2] = target: Aeropyrum pernix ThermoDBP-related protein 2 (apeThermoDBP-RP2) (Aeropyrum pernix); assay: crystal structure; remark: listed apart in the source
[3] = target: Aeropyrum pernix ThermoDBP-related protein 2 (apeThermoDBP-RP2) (Aeropyrum pernix); assay: SEC
[4] = target: Pyrococcus furiosus ThermoDBP-related protein 1 (pfuThermoDBP-RP1) (Pyrococcus furiosus); assay: crystal structure
[5] = target: Pyrococcus furiosus ThermoDBP-related protein 1 (pfuThermoDBP-RP1) (Pyrococcus furiosus); assay: SEC
apeThermoDBP-RP2 [6] = target: T1, apeThermoDBP-RP2 (Aeropyrum pernix, UniProt Q9YAS7 1-234); assay: EMSA
T1 sequence: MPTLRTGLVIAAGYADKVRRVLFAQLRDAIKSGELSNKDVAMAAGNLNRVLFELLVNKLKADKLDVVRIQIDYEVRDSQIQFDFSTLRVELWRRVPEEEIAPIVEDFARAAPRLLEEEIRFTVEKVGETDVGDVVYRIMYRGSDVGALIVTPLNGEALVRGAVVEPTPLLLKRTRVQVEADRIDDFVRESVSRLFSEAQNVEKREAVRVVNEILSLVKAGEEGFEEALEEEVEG

apeThermoDBP-RP2 [7] = target: T1, apeThermoDBP-RP2; assay: EMSA; remark: listed apart in the source
apeThermoDBP-RP2 [8] = target: T1, apeThermoDBP-RP2; assay: EMSA; remark: listed apart in the source
apeThermoDBP-RP2 [9] = target: T1, apeThermoDBP-RP2; assay: EMSA; remark: listed apart in the source

## Aeropyrum pernix ThermoDBP-related protein 2 (apeThermoDBP-RP2) (natural protein)
[1]
  stoichiometry N: 4
[2]
  stoichiometry N: 4
[3]
  stoichiometry N: 4

## Pyrococcus furiosus ThermoDBP-related protein 1 (pfuThermoDBP-RP1) (natural protein)
[4]
  stoichiometry N: 4
[5]
  stoichiometry N: 4

## TTTTTTTTTTTTTTT (ssDNA) [dT15]
apeThermoDBP-RP2 [6]
  binding result: binds

## TTTTTTTTTTTTTTTTTTTT (ssDNA) [dT20]
apeThermoDBP-RP2 [6]
  binding result: binds

## TTTTTTTTTTTTTTTTTTTTTTTTT (ssDNA) [dT25]
apeThermoDBP-RP2 [6]
  binding result: binds

## TTTTTTTTTTTTTTTTTTTTTTTTTTTTTT (ssDNA) [dT30]
apeThermoDBP-RP2 [7]
  binding result: binds

## TTTTTTTTTTTTTTTTTTTTTTTTTTTTTTTTTTT (ssDNA) [dT35]
apeThermoDBP-RP2 [8]
  binding result: binds

## CTTGCTAGGACGGATCCCTCGAGGTTTTTTTTTTTTTTTTTTTT (ssDNA) [45-mer ssDNA]
apeThermoDBP-RP2 [9]
  binding result: binds
